Measured values reported in patent publication US11629193B2, “EGFR binding molecules” (F-STAR BETA LIMITED, priority 2016, dated 2023).
“Also recorded” adds a separate entry of the source.

Columns and labels:
KP4 cells = test: Cell proliferation, KP4 cells (WST-1); assay type: cell-based; conditions: KP4, 0.003-300 nM, 3 days
Procedure: KP4 (Riken RCB1005) is a pancreatic ductal cell carcinoma which has autocrine production of HGF. […] After 3 days, cells were analysed using cell proliferation reagent WST-1 (Roche) to determine the number of viable cells as described in the manufacturer's protocol. The stable tetrazolium salt WST-1 is cleaved to a soluble formazan by the glycolytic production of NAD(P)H in viable cells. The amount of formazan dye formed is quantitated at absorbances 450 nm and 630 nm.

[1] = system: phosphorylation of c-Met and EGFR; test: Western blot of receptor phosphorylation in U87MG cells; assay type: cell-based, human; conditions: 200 nM, 20 min
Procedure: (§1) Overnight cultures of the glioblastoma cell line U87MG (ATCC HTB-14) were moved from a medium with 10% FBS to a low serum medium with 0.1% FBS to optimise sensitivity to ligand stimulation. The cells were incubated overnight. […] Controls without antibody treatment were included, with and without growth factor stimulation. The treated cells were lysed using lysis buffer (10 mM Tris® pH7.5, 150 mM NaCl, 1 mM EDTA) comprising 1:100 protease inhibitor cocktail (Calbiochem, 539131) and 1:100 Phosphatase inhibitor cocktail (Calbiochem, 524625) and the lysates collected for analysis.
(§2) Lysate samples were subjected to standard western blotting analysis using a 4-12% Bis-Tris® protein gel (ThermoFisher, NP0322BOX) and transferred to a nitrocellulose membrane (ThermoFisher, IB301001). The membrane was blocked with 5% Marvel milk/TBST and then probed for phospho-c-Met using a rabbit monoclonal antibody specific for c-Met phosphorylated at Tyr1234/1235 (Cell Signaling, 3077), phospho-EGFR using a mouse monoclonal antibody specific for EGFR phosphorylated at Tyr1068 (Cell Signaling, 2236), phospho-MAPK using a mouse monoclonal antibody specific for p44/42 MAPK (ERK1/2) phosphorylated at Thr202/Tyr204 (Cell Signaling, 9106), and phospho-Akt using a rabbit monoclonal antibody specific for Akt phosphorylated at Ser473 (Cell Signaling, 9271). […]

[2] = system: phosphorylation of MAPK and Akt; test: Western blot of downstream signalling in U87MG cells; assay type: cell-based, human; conditions: 200 nM (200+200 nM for combination), HGF and EGF present
Procedure: as §1, §2

NCI-H1975 cells = test: Cell proliferation, NCI-H1975 cells stimulated with HGF; assay type: cell-based
Procedure: NCI-H1975 (ATCC CRL-5908) is a non-small cell lung cancer (NSCLC) cell line which expresses constitutively active mutated EGFR L858R and EGFR T790M (Kobayashi et al 2005). These mutations are acquired secondary mutations known to confer resistance to EGFR tyrosine kinase inhibitor (TKI) therapies in NSCLC patients. The NCI-H1975 cell line also expresses c-Met. […] The same method was used as in the U87MG assay described above, except that the NCI-H1975 cells were stimulated with HGF. One day before the treatment, the medium used was changed from containing 10% FBS to containing no serum. Treatments were added at various concentrations (0.003-300 nM) in the presence of 80 ng/ml HGF and incubated for 3 days at 37° C.

NCI-H596 cells = test: Cell proliferation, NCI-H596 cells stimulated with EGF and HGF; assay type: cell-based; conditions: NCI-H596, 10-1000 nM, 2 ng/ml EGF and 12 ng/ml HGF, 3 days
Procedure: NCI-H596 (ATCC HTB-178) is a lung adenosquamous cancer cell line that engages both the EGF and HGF signalling pathways and was used to investigate the ability of mAb^2 molecules to block proliferation. The same method was used as in the U87MG assay described above, except that the NCI-H596 cells were stimulated with both EGF and HGF ligands. One day before the treatment, the level of FBS used in the media was reduced from 10% to 1%. The next day treatments were added at various concentrations (10-1000 nM) in the presence of 2 ng/ml EGF (R&D systems, 236-EG) and 12 ng/ml HGF (PeproTech, 100-39) and incubated for 3 days at 37° C. Controls of HGF+EGF, EGF only, HGF only and no ligand stimulation were also included.

HGF = molecular target: T1, HGF (Homo sapiens, UniProt P14210); test: Free HGF in culture media of U87MG cells (HGF Human ELISA Kit); assay type: cell-based; conditions: 30 nM, 4 days, compared to controls
T1 construct: examined in U87MG cells that secrete HGF; endogenous in cells; host or cells: U87MG
T1 sequence (P14210 32-728): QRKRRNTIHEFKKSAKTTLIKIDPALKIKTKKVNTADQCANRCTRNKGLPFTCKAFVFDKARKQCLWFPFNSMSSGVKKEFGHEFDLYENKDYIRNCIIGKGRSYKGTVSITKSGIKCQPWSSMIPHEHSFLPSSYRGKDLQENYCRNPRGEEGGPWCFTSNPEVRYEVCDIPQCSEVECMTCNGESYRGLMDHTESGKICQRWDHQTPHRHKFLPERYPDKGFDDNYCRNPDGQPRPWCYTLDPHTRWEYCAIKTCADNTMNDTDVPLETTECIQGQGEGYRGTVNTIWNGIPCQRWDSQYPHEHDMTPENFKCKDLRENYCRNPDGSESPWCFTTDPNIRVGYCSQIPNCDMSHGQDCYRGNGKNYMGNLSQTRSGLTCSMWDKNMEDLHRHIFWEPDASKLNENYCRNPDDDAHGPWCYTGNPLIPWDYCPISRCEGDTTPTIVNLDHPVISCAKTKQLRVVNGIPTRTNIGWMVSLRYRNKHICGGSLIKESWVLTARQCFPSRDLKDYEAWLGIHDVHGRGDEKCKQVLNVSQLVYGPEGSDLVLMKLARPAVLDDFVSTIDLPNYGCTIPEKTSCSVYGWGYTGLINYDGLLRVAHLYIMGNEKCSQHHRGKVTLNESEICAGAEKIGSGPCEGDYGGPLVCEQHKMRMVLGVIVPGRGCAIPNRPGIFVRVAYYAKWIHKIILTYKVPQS
Procedure: It was hypothesised that internalisation of HGF by anti-EGFR/HGF mAb^2 leads to reduced level of HGF in the system. To test this hypothesis, the change in level of free HGF caused by incubation with anti-EGFR/HGF mAb^2 was examined in U87MG cells that secrete HGF. U87MG cultures were incubated with different treatments at 30 nM for 4 days at 37° C. […] On day 4, the media from each cell culture were collected for HGF level analysis. HGF concentration was measured using HGF Human ELISA Kit (ThermoFisher, KAC2211) following the manufacturer's protocol. Using monoclonal anti-HGF antibodies, the free HGF in media was detected (free HGF was defined as HGF in the media which was bound by detection antibodies).

HER3 = molecular target: T2, HER3 (Homo sapiens, UniProt P21860); test: ELISA for specific binding within the HER receptor family; conditions: 1 μM, antigen coated at 1 μg/ml
T2 construct: purchased Sino Biological 10201-H08H
Procedure: Antigens including EGFR (produced in house), HER2 His Tag (Sino Biological, 10004-H08H), HER3 His Tag (Sino Biological, 10201-H08H) and HER4 His Tag (Sino Biological, 10363-H08H) were biotinylated using the Lightning-Link™ Biotin kit (Innova Biosciences, 704-0030) following the supplier's protocol. The biotinylated antigens were coated in different wells on MaxiSorp™ plate (Nunc) at 1 μg/ml in PBS overnight at 4° C. and excess unbound antigens were washed off with PBS. The antigen-coated plate was blocked with 1% TWEEN® in PBS (PBST) for 1 hour at room temperature. After removing PBST, the anti-EGFR Fcabs (1 μM) and relevant positive and IgG negative antibody controls (1 μM) in 0.1% PBST were incubated for 1 hour to bind the coated antigens followed by washing. The bound Fcabs or antibodies were detected by Protein A-HRP (ThermoFisher 101023) or anti-mouse IgG-horseradish peroxidase (HRP) (Sigma A9044) for the HER4 positive control. Tetramethylbenzidine (TMB) (eBioscience 00-4201-56) was used as the substrate to interact with HRP enzyme for colorimetric detection. 1 M Sulphuric acid was added to stop the enzyme-substrate reaction. The plate was read at an absorbance of 450 nm subtracted by 630 nm as background.

Row | Molecule | reduction in cell proliferation (WST-1) (KP4 cells) | block of phosphorylation of c-Met by HGF [1] | block of phosphorylation of MAPK and Akt [2] | reduction of cell proliferation induced by HGF (NCI-H1975 cells; NCI-H1975, 0.003-300 nM, 80 ng/ml HGF, 3 days) | reduction of cell proliferation induced by HGF (NCI-H1975 cells; NCI-H1975, antibodies 300 nM with and without erlotinib (2 μM)) | inhibition of cell proliferation induced by HGF and EGF (NCI-H596 cells) | concentration of free HGF in the media (HGF) | binding to HER3 (HER3)
1 | ficlatuzumab (antibody, V domains shown, FI VH domain; FI VL domain) VH: QVQLVQPGAEVKKPGTSVKLSCKASGYTFTTYWMHWVRQAPGQGLEWIGEINPTNGHTNYNQKFQGRATLTVDKSTSTAYMELSSLRSEDTAVYYCARNYVGSIFDYWGQGTLLTVSS VL: DIVMTQSPDSLAMSLGERVTLNCKASENVVSYVSWYQQKPGQSPKLLIYGASNRESGVPDRFSGSGSATDFTLTISSVQAEDVADYHCGQSYNYPYTFGQGTKLEIKR | concentration-dependent reduction in cell proliferation; also recorded: inhibited cell proliferation, but to a lesser extent | able to block the phosphorylation of c-Met by HGF | unable to block the phosphorylation of MAPK and Akt | did not | No effect | unable to block stimulation when both ligands were present | significant decrease in the concentration of free HGF in the media | 
2 | MM121: antibody MM121 (Merrimack), positive control for HER3 (antibody, chains of the INN, looked up) heavy: EVQLLESGGGLVQPGGSLRLSCAASGFTFSHYVMAWVRQAPGKGLEWVSSISSSGGWTLYADSVKGRFTISRDNSKNTLYLQMNSLRAEDTAVYYCTRGLKMATIFDYWGQGTLVTVSSASTKGPSVFPLAPCSRSTSESTAALGCLVKDYFPEPVTVSWNSGALTSGVHTFPAVLQSSGLYSLSSVVTVPSSNFGTQTYTCNVDHKPSNTKVDKTVERKCCVECPPCPAPPVAGPSVFLFPPKPKDTLMISRTPEVTCVVVDVSHEDPEVQFNWYVDGVEVHNAKTKPREEQFNSTFRVVSVLTVVHQDWLNGKEYKCKVSNKGLPAPIEKTISKTKGQPREPQVYTLPPSREEMTKNQVSLTCLVKGFYPSDIAVEWESNGQPENNYKTTPPMLDSDGSFFLYSKLTVDKSRWQQGNVFSCSVMHEALHNHYTQKSLSLSPG light: QSALTQPASVSGSPGQSITISCTGTSSDVGSYNVVSWYQQHPGKAPKLIIYEVSQRPSGVSNRFSGSKSGNTASLTISGLQTEDEADYYCCSYAGSSIFVIFGGGTKVTVLGQPKAAPSVTLFPPSSEELQANKATLVCLVSDFYPGAVTVAWKADGSPVKVGVETTKPSKQSNNKYAASSYLSLTPEQWKSHRSYSCRVTHEGSTVEKTVAPAECS |  |  |  |  |  |  |  | bound to their corresponding antigens
